The record followed here is PMC10755749.

In series [1] the test system is VACV A27 protein;anti-A29 IgG antibody (Vaccinia virus (Copenhagen?);). The series is described as follows: single-molecule nanopore. Particulars: 5'-phosphate on aptamer probe, ligated into carrier.
The subject of series [2] is VZV protein;anti-A29 IgG antibody (Varicella zoster virus;). The series is described as follows: single-molecule nanopore. Conditions: 5'-phosphate on aptamer probe, ligated into carrier.
Series [3] has as its system MPXV A29 protein;anti-A29 IgG antibody (mpox virus;). The series is described as follows: single-molecule nanopore. Particulars: 5'-phosphate on aptamer probe, ligated into carrier.
Another series has as its system anti-A29 IgG antibody. The series is described as follows: single-molecule nanopore. Particulars: 5'-phosphate on aptamer probe, ligated into carrier.
The subject of series [4] is MPXV A29 protein;anti-A29 IgG antibody (mpox virus;). The series is described as follows: single-molecule nanopore, Hill fit. Particulars: 5'-phosphate on aptamer probe, ligated into carrier.
The test system is the same in series [5]. The series is described as follows: single-molecule nanopore. Particulars: 5'-phosphate on aptamer probe, ligated into carrier. The source holds these as a separate data set.
Series [6] deals with MPXV A29 protein (mpox virus). The series is described as follows: SPR. (SPR reads the build-up and loss of mass on a sensor chip optically.)

The term Kd denotes the constant that tells how readily two partners part at equilibrium. A low value points to tighter binding. Regarding “CACTGCGCCGGTATCGATATATTTTTTCACGCATAACGTCTTGCGGGGCGGCGGGTTGAGAGGATGTCGGGTGGTTATGCGTG / AAACCACTCAAGTTTGCCAACCAAATGTATATCGATACCGGCGCAGTG [9.1 kbp DNA molecular probe with HIM-A29-6]”, the binding signal (% events with subpeak) in series [1] was found to be 0.01; in series [2], 0; in series [3], 3.98; in the series with anti-A29 IgG antibody, 0.01; in series [5] it was 3.98. In series [4], this sequence had a Kd of 0.0823 nM.
In turn, “AGCACTCCACGCATAACGGAGCCGGGGGGCCTTGGGGGATGCAGCTTCGAAGTGTTATGCGTGCTACCGT [HIM-A29-2]” gave a Kd in series [6] of 35.4 nM.
The same measure, in the same setting: to “CACGCATAACGTCTTGCGGGGCGGCGGGTTGAGAGGATGTCGGGTGGTTATGCGTG [HIM-A29-6]” belongs under 10 nM.
Same read-out and setting: the figure for “AGCACTCCACGCATAACGGGGGAGGAGGAGGTTCACTTTGGGCGGGTGGGAATGTTATGCGTGCTACCGT [HIM-A29-3]” is 12.4 nM; for “AGCACTCCACGCATAACCGGTGGGCGGGGGATGTGGGAAGGTATCGGGGTTGCGTTATGCGTGCTACCGT [HIM-A29-5]” it is 8.49 nM; for “AGCACTCCACGCATAACGGGGGAGGAGGAGGATGTTATTGGGTGGGCGGGTTTGTTATGCGTGCTACCGT [HIM-A29-4]” it is 18.6 nM.
The same measure, in the same setting: to “AGCACTCCACGCATAACGGGGTCTGGTGGTCTGGCTGGTTTGGGGGTTTGGTCGTTATGCGTGCTACCGT [HIM-A29-1]” belongs 10.8 nM.
